Results: PMC11969024 (2025)

B1: peptide HD2 (from tick evasin EVA4) / CXCL11 (biotinylated, synthetic) (parent complex)
chain 1: EEDDYTAYAPLTCYFT
chain 2: FPMFKRGRCLCIGPGVKAVKVADIEKASIMYPSNNCDKIEVIITLKENKGQRCLNPKSKQARLIIKKVERKNF

Variants of: B1

Going from chain 1 EEDDYTAYVPLTCYFT [chain 1 A9V] to chain 1 EEDDYTAYHPLTCYFT [chain 1 A9H], the enrichment falls from -2.18 log2 (difference from the parental peptide) to -5.35 log2 (difference from the parental peptide).

Going from chain 1 EEDDYTAYGPLTCYFT [chain 1 A9G] to chain 1 EEDDYTAYPPLTCYFT [chain 1 A9P], the enrichment rises from -1.08 log2 (difference from the parental peptide) to 0.549 log2 (difference from the parental peptide).

Going from chain 1 EEDDYTAYLPLTCYFT [chain 1 A9L] to chain 1 EEDDYTAYMPLTCYFT [chain 1 A9M], the enrichment rises from -2.33 log2 (difference from the parental peptide) to -0.281 log2 (difference from the parental peptide).

Compared with chain 1 EEDDYTAYNPLTCYFT [chain 1 A9N], chain 1 EEDDYTAYWPLTCYFT [chain 1 A9W] is higher in enrichment: -2.99 log2 (difference from the parental peptide) for the first, 5.42 log2 (difference from the parental peptide) for the second.

Going from chain 1 EEDDYTAYYPLTCYFT [chain 1 A9Y] to chain 1 EEDDYTAYIPLTCYFT [chain 1 A9I], the enrichment falls from -4.48 log2 (difference from the parental peptide) to -4.81 log2 (difference from the parental peptide).

Compared with chain 1 EEDDYTAYAVLTCYFT [chain 1 P10V], chain 1 EEDDYTAYANLTCYFT [chain 1 P10N] is higher in enrichment: -5.93 log2 (difference from the parental peptide) for the first, 1.47 log2 (difference from the parental peptide) for the second.

Going from chain 1 EEDDYTAYAGLTCYFT [chain 1 P10G] to chain 1 EEDDYTAYAWLTCYFT [chain 1 P10W], the enrichment falls from 2.73 log2 (difference from the parental peptide) to 0.743 log2 (difference from the parental peptide).

First: chain 1 EEDDYTAYAALTCYFT [chain 1 P10A]
Second: chain 1 EEDDYTAYASLTCYFT [chain 1 P10S]
The enrichment of the first is higher: -0.641 log2 (difference from the parental peptide) for the first, -1.81 log2 (difference from the parental peptide) for the second.

Compared with chain 1 EEDDYTAYAILTCYFT [chain 1 P10I], chain 1 EEDDYTAYALLTCYFT [chain 1 P10L] is lower in enrichment: -0.366 log2 (difference from the parental peptide) for the first, -1.17 log2 (difference from the parental peptide) for the second.

First: chain 1 EEDDYTAYAHLTCYFT [chain 1 P10H]
Second: chain 1 EEDDYDAYAPLTCYFT [chain 1 T6D]
The enrichment of the first is lower: -5.09 log2 (difference from the parental peptide) for the first, 3.67 log2 (difference from the parental peptide) for the second.

Going from chain 1 EEDDYKAYAPLTCYFT [chain 1 T6K] to chain 1 EEDDYYAYAPLTCYFT [chain 1 T6Y], the enrichment rises from 0.156 log2 (difference from the parental peptide) to 3.68 log2 (difference from the parental peptide).

Going from chain 1 EEDDYAAYAPLTCYFT [chain 1 T6A] to chain 1 EEDDYMAYAPLTCYFT [chain 1 T6M], the enrichment rises from 1.82 log2 (difference from the parental peptide) to 1.9 log2 (difference from the parental peptide).

First: chain 1 EEDDYNAYAPLTCYFT [chain 1 T6N]
Second: chain 1 EEDDYFAYAPLTCYFT [chain 1 T6F]
The enrichment of the first is lower: 1.03 log2 (difference from the parental peptide) for the first, 4.5 log2 (difference from the parental peptide) for the second.

First: chain 1 EEDDYGAYAPLTCYFT [chain 1 T6G]
Second: chain 1 LEDDYTAYAPLTCYFT [chain 1 E1L]
The enrichment of the first is higher: 4.62 log2 (difference from the parental peptide) for the first, -0.107 log2 (difference from the parental peptide) for the second.

First: chain 1 WEDDYTAYAPLTCYFT [chain 1 E1W]
Second: chain 1 QEDDYTAYAPLTCYFT [chain 1 E1Q]
The enrichment of the first is lower: 1.25 log2 (difference from the parental peptide) for the first, 2.79 log2 (difference from the parental peptide) for the second.

Going from chain 1 IEDDYTAYAPLTCYFT [chain 1 E1I] to chain 1 VEDDYTAYAPLTCYFT [chain 1 E1V], the enrichment falls from 0.804 log2 (difference from the parental peptide) to -6.09 log2 (difference from the parental peptide).

Going from chain 1 FEDDYTAYAPLTCYFT [chain 1 E1F] to chain 1 AEDDYTAYAPLTCYFT [chain 1 E1A], the enrichment rises from -0.271 log2 (difference from the parental peptide) to 0.823 log2 (difference from the parental peptide).

Going from chain 1 DEDDYTAYAPLTCYFT [chain 1 E1D] to chain 1 EEDDYTPYAPLTCYFT [chain 1 A7P], the enrichment falls from 1.33 log2 (difference from the parental peptide) to 0.432 log2 (difference from the parental peptide).

First: chain 1 EEDDYTIYAPLTCYFT [chain 1 A7I]
Second: chain 1 EEDDYTHYAPLTCYFT [chain 1 A7H]
The enrichment of the first is higher: 1.35 log2 (difference from the parental peptide) for the first, -1.06 log2 (difference from the parental peptide) for the second.

Compared with chain 1 EEDDYTKYAPLTCYFT [chain 1 A7K], chain 1 EEDDYTVYAPLTCYFT [chain 1 A7V] is higher in enrichment: -3.04 log2 (difference from the parental peptide) for the first, 0.52 log2 (difference from the parental peptide) for the second.

Compared with chain 1 EEDDYTGYAPLTCYFT [chain 1 A7G], chain 1 EEDDYTFYAPLTCYFT [chain 1 A7F] is higher in enrichment: -3.03 log2 (difference from the parental peptide) for the first, 1.43 log2 (difference from the parental peptide) for the second.

Compared with chain 1 EEDDYTYYAPLTCYFT [chain 1 A7Y], chain 1 EEDDYTTYAPLTCYFT [chain 1 A7T] is lower in enrichment: 2.5 log2 (difference from the parental peptide) for the first, -0.798 log2 (difference from the parental peptide) for the second.

Compared with chain 1 EEDDYTRYAPLTCYFT [chain 1 A7R], chain 1 EEDDYTAYAPLTCHFT [chain 1 Y14H] is lower in enrichment: -1.89 log2 (difference from the parental peptide) for the first, -2.54 log2 (difference from the parental peptide) for the second.

Compared with chain 1 EEDDYTAYAPLTCLFT [chain 1 Y14L], chain 1 EEDDYTAYAPLTCCFT [chain 1 Y14C] is higher in enrichment: -3.92 log2 (difference from the parental peptide) for the first, -3.13 log2 (difference from the parental peptide) for the second.

Going from chain 1 EEDDYTAYAPLTCVFT [chain 1 Y14V] to chain 1 EEDDYTAYAPLTCFFT [chain 1 Y14F], the enrichment rises from -5.26 log2 (difference from the parental peptide) to 0.796 log2 (difference from the parental peptide).

Going from chain 1 EEDDYTAYAPLTCGFT [chain 1 Y14G] to chain 1 EDDDYTAYAPLTCYFT [chain 1 E2D], the enrichment rises from -6.05 log2 (difference from the parental peptide) to 0.953 log2 (difference from the parental peptide).

Going from chain 1 EKDDYTAYAPLTCYFT [chain 1 E2K] to chain 1 ELDDYTAYAPLTCYFT [chain 1 E2L], the enrichment rises from -2.28 log2 (difference from the parental peptide) to -1.04 log2 (difference from the parental peptide).

Going from chain 1 EVDDYTAYAPLTCYFT [chain 1 E2V] to chain 1 EEDDLTAYAPLTCYFT [chain 1 Y5L], the enrichment falls from -1.84 log2 (difference from the parental peptide) to -4.33 log2 (difference from the parental peptide).

Compared with chain 1 EEDDFTAYAPLTCYFT [chain 1 Y5F], chain 1 EEDDYTAYAPLTCYDT [chain 1 F15D] is lower in enrichment: -0.5 log2 (difference from the parental peptide) for the first, -1.93 log2 (difference from the parental peptide) for the second.

Compared with chain 1 EEDDYTAYAPLTCYAT [chain 1 F15A], chain 1 EEDDYTAYAPLTCYHT [chain 1 F15H] is higher in enrichment: -3.02 log2 (difference from the parental peptide) for the first, -2.86 log2 (difference from the parental peptide) for the second.

Going from chain 1 EEDDYTAYAPLTCYET [chain 1 F15E] to chain 1 EEDDYTAYAPLTCYVT [chain 1 F15V], the enrichment rises from -6.06 log2 (difference from the parental peptide) to -0.608 log2 (difference from the parental peptide).

First: chain 1 EEDDYTAYAPLTCYKT [chain 1 F15K]
Second: chain 1 EEDDYTAYAPLTCYQT [chain 1 F15Q]
The enrichment of the first is lower: -4.14 log2 (difference from the parental peptide) for the first, -2.96 log2 (difference from the parental peptide) for the second.

Going from chain 1 EEDDYTAYAPLTCYYT [chain 1 F15Y] to chain 1 EEDDYTAVAPLTCYFT [chain 1 Y8V], the enrichment falls from 0.592 log2 (difference from the parental peptide) to -0.599 log2 (difference from the parental peptide).

Compared with chain 1 EEDDYTAAAPLTCYFT [chain 1 Y8A], chain 1 EEDDYTATAPLTCYFT [chain 1 Y8T] is lower in enrichment: -0.869 log2 (difference from the parental peptide) for the first, -5.62 log2 (difference from the parental peptide) for the second.

Compared with chain 1 EEDDYTADAPLTCYFT [chain 1 Y8D], chain 1 EEDDYTAHAPLTCYFT [chain 1 Y8H] is lower in enrichment: -3.68 log2 (difference from the parental peptide) for the first, -4.71 log2 (difference from the parental peptide) for the second.

First: chain 1 EEDDYTAGAPLTCYFT [chain 1 Y8G]
Second: chain 1 EEDDYTAWAPLTCYFT [chain 1 Y8W]
The enrichment of the first is lower: -1.09 log2 (difference from the parental peptide) for the first, 2.23 log2 (difference from the parental peptide) for the second.

Compared with chain 1 EEDDYTAMAPLTCYFT [chain 1 Y8M], chain 1 EEDDYTAYAPLTCYFG [chain 1 T16G] is higher in enrichment: -5.63 log2 (difference from the parental peptide) for the first, 0.304 log2 (difference from the parental peptide) for the second.

Compared with chain 1 EEDDYTAYAPLTCYFW [chain 1 T16W], chain 1 EEDDYTAYAPLTCYFA [chain 1 T16A] is lower in enrichment: 0.43 log2 (difference from the parental peptide) for the first, -0.756 log2 (difference from the parental peptide) for the second.

Going from chain 1 EEDDYTAYAPLTCYFC [chain 1 T16C] to chain 1 EEDDYTAYAPLTCYFS [chain 1 T16S], the enrichment falls from 2.71 log2 (difference from the parental peptide) to 0.254 log2 (difference from the parental peptide).

First: chain 1 EEDDYTAYAPLTCYFF [chain 1 T16F]
Second: chain 1 EEDDYTAYAPLTCYFI [chain 1 T16I]
The enrichment of the first is lower: -2.01 log2 (difference from the parental peptide) for the first, 0.577 log2 (difference from the parental peptide) for the second.

Going from chain 1 EEWDYTAYAPLTCYFT [chain 1 D3W] to chain 1 EETDYTAYAPLTCYFT [chain 1 D3T], the enrichment falls from 0.263 log2 (difference from the parental peptide) to -3.75 log2 (difference from the parental peptide).

Compared with chain 1 EEIDYTAYAPLTCYFT [chain 1 D3I], chain 1 EEYDYTAYAPLTCYFT [chain 1 D3Y] is higher in enrichment: -2.24 log2 (difference from the parental peptide) for the first, -1.43 log2 (difference from the parental peptide) for the second.

First: chain 1 EELDYTAYAPLTCYFT [chain 1 D3L]
Second: chain 1 EEDDYTAYAPLLCYFT [chain 1 T12L]
The enrichment of the first is lower: -0.828 log2 (difference from the parental peptide) for the first, -0.306 log2 (difference from the parental peptide) for the second.

Compared with chain 1 EEDDYTAYAPLSCYFT [chain 1 T12S], chain 1 EEDDYTAYAPLMCYFT [chain 1 T12M] is higher in enrichment: -1.85 log2 (difference from the parental peptide) for the first, 0.317 log2 (difference from the parental peptide) for the second.

First: chain 1 EEDDYTAYAPLCCYFT [chain 1 T12C]
Second: chain 1 EEDDYTAYAPLYCYFT [chain 1 T12Y]
The enrichment of the first is lower: -5.77 log2 (difference from the parental peptide) for the first, 1.35 log2 (difference from the parental peptide) for the second.

First: chain 1 EEDDYTAYAPLHCYFT [chain 1 T12H]
Second: chain 1 EEDDYTAYAPLWCYFT [chain 1 T12W]
The enrichment of the first is lower: -2.7 log2 (difference from the parental peptide) for the first, 0.223 log2 (difference from the parental peptide) for the second.

First: chain 1 EEDDYTAYAPLPCYFT [chain 1 T12P]
Second: chain 1 EEDDYTAYAPLRCYFT [chain 1 T12R]
The enrichment of the first is higher: -0.00384 log2 (difference from the parental peptide) for the first, -6.22 log2 (difference from the parental peptide) for the second.

First: chain 1 EEDDYTAYAPLNCYFT [chain 1 T12N]
Second: chain 1 EEDDYTAYAPLDCYFT [chain 1 T12D]
The enrichment of the first is higher: -0.502 log2 (difference from the parental peptide) for the first, -5.79 log2 (difference from the parental peptide) for the second.

Going from chain 1 EEDDYTAYAPKTCYFT [chain 1 L11K] to chain 1 EEDDYTAYAPWTCYFT [chain 1 L11W], the enrichment rises from -4.12 log2 (difference from the parental peptide) to 4.79 log2 (difference from the parental peptide).

Compared with chain 1 EEDDYTAYAPATCYFT [chain 1 L11A], chain 1 EEDDYTAYAPSTCYFT [chain 1 L11S] is higher in enrichment: -1.47 log2 (difference from the parental peptide) for the first, -0.706 log2 (difference from the parental peptide) for the second.

Going from chain 1 EEDDYTAYAPRTCYFT [chain 1 L11R] to chain 1 EEDDYTAYAPPTCYFT [chain 1 L11P], the enrichment falls from -3.19 log2 (difference from the parental peptide) to -5.24 log2 (difference from the parental peptide).

First: chain 1 EEDVYTAYAPLTCYFT [chain 1 D4V]
Second: chain 1 EEDQYTAYAPLTCYFT [chain 1 D4Q]
The enrichment of the first is lower: -6.99 log2 (difference from the parental peptide) for the first, -3.62 log2 (difference from the parental peptide) for the second.

Going from chain 1 EEDSYTAYAPLTCYFT [chain 1 D4S] to chain 1 EEDPYTAYAPLTCYFT [chain 1 D4P], the enrichment rises from -5.73 log2 (difference from the parental peptide) to 0.748 log2 (difference from the parental peptide).

Going from chain 1 EEDDYTAYAPLTPYFT [chain 1 C13P] to chain 1 EEDDYTAYAPLTNYFT [chain 1 C13N], the enrichment rises from -5.74 log2 (difference from the parental peptide) to -3.76 log2 (difference from the parental peptide).

First: chain 1 EEDDYTAYAPLTQYFT [chain 1 C13Q]
Second: chain 1 EEDDYTAYAPLTLYFT [chain 1 C13L]
The enrichment of the first is higher: -4.93 log2 (difference from the parental peptide) for the first, -8.45 log2 (difference from the parental peptide) for the second.

Going from chain 1 EEDDYTAYAPLTAYFT [chain 1 C13A] to chain 1 EEDDYTAYAPLTSYFT [chain 1 C13S], the enrichment rises from -5.18 log2 (difference from the parental peptide) to -1.17 log2 (difference from the parental peptide).
